Test results reported in publication PMC8546710.

What was measured:
[1] = molecular target: CDV M protein (strain A75/17) mutant L96N; assay: coimmunoprecipitation (coIP efficiency index, Western blot band quantification); conditions: 2xHA-M and FLAG-M co-expressed in HEK-293T cells; IP anti-HA, IB anti-M; parent: est. 100; read off a plot
[2] = molecular target: CDV M protein (strain A75/17) mutant Y236F; assay: as above; conditions: 2xHA-M and FLAG-M co-expressed in HEK-293T cells; IP anti-HA, IB anti-M; parent: est. 100; read off a plot
[3] = molecular target: CDV M protein (strain A75/17) mutant G245P (canine distemper virus, strain A75/17); assay: co-IP; FLAG-M and 2×HA-longlinker-M, both bearing the same mutation, cotransfected in HEK-293T; lysed 24 h posttransfection in 50 mM Tris pH 7.4, 150 mM NaCl, 0.05% NP-40, 5% glycerol, 20 mM sodium molybdate; IP with anti-HA (16B12) and Dynabeads Protein G at 4°C; blot with polyclonal anti-CDV M; coIP efficiency index = (coIP/IP)/(ratio in total lysates), normalised to wt = 100%
[4] = molecular target: CDV M protein (strain A75/17) mutant K92E; assay: coimmunoprecipitation (coIP efficiency index, Western blot band quantification); conditions: 2xHA-M and FLAG-M co-expressed in HEK-293T cells; IP anti-HA, IB anti-M; parent: est. 100; read off a plot
[5] = molecular target: CDV M protein (strain A75/17) mutant E89D; assay: as above; conditions: 2xHA-M and FLAG-M co-expressed in HEK-293T cells; IP anti-HA, IB anti-M; parent: est. 100; read off a plot
[6] = molecular target: CDV M protein (strain A75/17) mutant E89Y; assay: as above; conditions: 2xHA-M and FLAG-M co-expressed in HEK-293T cells; IP anti-HA, IB anti-M; parent: est. 100; read off a plot
[7] = molecular target: CDV M protein (strain A75/17) mutant E242Q; assay: as above; conditions: 2xHA-M and FLAG-M co-expressed in HEK-293T cells; IP anti-HA, IB anti-M; parent: est. 100; read off a plot
[8] = molecular target: CDV M protein (strain A75/17) mutant K238E (canine distemper virus, strain A75/17); assay: co-IP; FLAG-M and 2×HA-longlinker-M, both bearing the same mutation, cotransfected in HEK-293T; lysed 24 h posttransfection in 50 mM Tris pH 7.4, 150 mM NaCl, 0.05% NP-40, 5% glycerol, 20 mM sodium molybdate; IP with anti-HA (16B12) and Dynabeads Protein G at 4°C; blot with polyclonal anti-CDV M; coIP efficiency index = (coIP/IP)/(ratio in total lysates), normalised to wt = 100%
[9] = molecular target: CDV M protein (strain A75/17) mutant E89G; assay: coimmunoprecipitation (coIP efficiency index, Western blot band quantification); conditions: 2xHA-M and FLAG-M co-expressed in HEK-293T cells; IP anti-HA, IB anti-M; parent: est. 100; read off a plot
[10] = molecular target: CDV M protein (strain A75/17) mutant E89R; assay: as above; conditions: 2xHA-M and FLAG-M co-expressed in HEK-293T cells; IP anti-HA, IB anti-M; parent: est. 100; read off a plot
[11] = molecular target: CDV M protein (strain A75/17) mutant G245P; assay: as above; conditions: 2xHA-M and FLAG-M co-expressed in HEK-293T cells; IP anti-HA, IB anti-M; parent: est. 100; read off a plot
[12] = molecular target: CDV M protein (strain A75/17) mutant K240Q; assay: as above; conditions: 2xHA-M and FLAG-M co-expressed in HEK-293T cells; IP anti-HA, IB anti-M; parent: est. 100; read off a plot
[13] = molecular target: CDV M protein (strain A75/17) mutant L239D; assay: as above; conditions: 2xHA-M and FLAG-M co-expressed in HEK-293T cells; IP anti-HA, IB anti-M; parent: est. 100; read off a plot
[14] = molecular target: CDV M protein (strain A75/17) mutant E89K; assay: as above; conditions: 2xHA-M and FLAG-M co-expressed in HEK-293T cells; IP anti-HA, IB anti-M; parent: est. 100; read off a plot
[15] = molecular target: CDV M protein (strain A75/17) mutant K238E; assay: as above; conditions: 2xHA-M and FLAG-M co-expressed in HEK-293T cells; IP anti-HA, IB anti-M; bar marked 'Poorly expressed'; parent: est. 100; read off a plot
[16] = molecular target: CDV M protein (strain A75/17) mutant A94S; assay: as above; conditions: 2xHA-M and FLAG-M co-expressed in HEK-293T cells; IP anti-HA, IB anti-M; parent: est. 100; read off a plot
[17] = molecular target: CDV M protein (strain A75/17) mutant D235N; assay: as above; conditions: 2xHA-M and FLAG-M co-expressed in HEK-293T cells; IP anti-HA, IB anti-M; parent: est. 100; read off a plot
[18] = molecular target: CDV M protein (strain A75/17) mutant P87A; assay: as above; conditions: 2xHA-M and FLAG-M co-expressed in HEK-293T cells; IP anti-HA, IB anti-M; parent: est. 100; read off a plot
[19] = molecular target: CDV M protein (strain A75/17) mutant E89H; assay: as above; conditions: 2xHA-M and FLAG-M co-expressed in HEK-293T cells; IP anti-HA, IB anti-M; parent: est. 100; read off a plot
[20] = molecular target: CDV M protein (strain A75/17) mutant K243E; assay: as above; conditions: 2xHA-M and FLAG-M co-expressed in HEK-293T cells; IP anti-HA, IB anti-M; parent: est. 100; read off a plot

Work on “canine distemper virus (CDV) matrix (M) protein, strain A75/17, wild type L96N” yielded a percent of parent (percent to wt) [1] of 96.
“canine distemper virus (CDV) matrix (M) protein, strain A75/17, wild type Y236F” gave a percent of parent (percent to wt) [2] of 84.
In the case of “CDV M protein (strain A75/17) mutant G245P (natural protein)”, the coIP efficiency index (normalised to wt) [3] is reported as 3.8%.
“canine distemper virus (CDV) matrix (M) protein, strain A75/17, wild type K92E” showed a percent of parent (percent to wt) [4] of 87.
With “canine distemper virus (CDV) matrix (M) protein, strain A75/17, wild type E89D” the percent of parent (percent to wt) [5] was 80.
Work on “canine distemper virus (CDV) matrix (M) protein, strain A75/17, wild type E89Y” yielded a percent of parent (percent to wt) [6] of 91.
“canine distemper virus (CDV) matrix (M) protein, strain A75/17, wild type E242Q” showed a percent of parent (percent to wt) [7] of 150.
Work on “CDV M protein (strain A75/17) mutant K238E (natural protein)” yielded a coIP efficiency index (normalised to wt) [8] of 9.7%.
For “canine distemper virus (CDV) matrix (M) protein, strain A75/17, wild type E89G”, the percent of parent (percent to wt) [9] was 47.
Work on “canine distemper virus (CDV) matrix (M) protein, strain A75/17, wild type E89R” yielded a percent of parent (percent to wt) [10] of 77.
Work on “canine distemper virus (CDV) matrix (M) protein, strain A75/17, wild type G245P” yielded a percent of parent (percent to wt) [11] of 4.
“canine distemper virus (CDV) matrix (M) protein, strain A75/17, wild type K240Q” showed a percent of parent (percent to wt) [12] of 100.
For “canine distemper virus (CDV) matrix (M) protein, strain A75/17, wild type L239D”, the percent of parent (percent to wt) [13] was 110.
In the case of “canine distemper virus (CDV) matrix (M) protein, strain A75/17, wild type E89K”, the percent of parent (percent to wt) [14] is reported as 83.
“canine distemper virus (CDV) matrix (M) protein, strain A75/17, wild type K238E” showed a percent of parent (percent to wt) [15] of 9.
“canine distemper virus (CDV) matrix (M) protein, strain A75/17, wild type A94S” was tested, and the percent of parent (percent to wt) [16] was 98.
With “canine distemper virus (CDV) matrix (M) protein, strain A75/17, wild type D235N” the percent of parent (percent to wt) [17] was 120.
“canine distemper virus (CDV) matrix (M) protein, strain A75/17, wild type P87A” showed a percent of parent (percent to wt) [18] of 120.
“canine distemper virus (CDV) matrix (M) protein, strain A75/17, wild type E89H” showed a percent of parent (percent to wt) [19] of 98.
In the case of “canine distemper virus (CDV) matrix (M) protein, strain A75/17, wild type K243E”, the percent of parent (percent to wt) [20] is reported as 97.
